Numbering of substitutions follows the chain as printed. In names and notes the source's numbering stands.
What was measured:
SEC = biological target: the molecule itself; assay: SEC
[1] = biological target: the molecule itself; assay: SEC with right-angle light scattering

B1: full-length wild-type human PUS3 protein (pseudouridine synthase 3) (enzyme, UniProt Q9BZE2 1-481, looked up)
chain: MAYNDTDRNQTEKLLKRVRELEQEVQRLKKEQAKNKEDSNIRENSAGAGKTKRAFDFSAHGRRHVALRIAYMGWGYQGFASQENTNNTIEEKLFEALTKTRLVESRQTSNYHRCGRTDKGVSAFGQVISLDLRSQFPRGRDSEDFNVKEEANAAAEEIRYTHILNRVLPPDIRILAWAPVEPSFSARFSCLERTYRYFFPRADLDIVTMDYAAQKYVGTHDFRNLCKMDVANGVINFQRTILSAQVQLVGQSPGEGRWQEPFQLCQFEVTGQAFLYHQVRCMMAILFLIGQGMEKPEIIDELLNIEKNPQKPQYSMAVEFPLVLYDCKFENVKWIYDQEAQEFNITHLQQLWANHAVKTHMLYSMLQGLDTVPVPCGIGPKMDGMTEWGNVKPSVIKQTSAFVEGVKMRTYKPLMDRPKCQGLESRIQHFVRRGRIEHPHLFHEEETKAKRDCNDTLEEENTNLETPTKRVCVDTEIKSII
SEC
  stoichiometry N: 2

B2: full-length human PUS3 D118A mutant (catalytic site) (enzyme, UniProt Q9BZE2 1-481, looked up)
chain: B1 chain with D118A
SEC
  binding result: binds

B3: full-length human PUS3 Y71C mutant (enzyme, UniProt Q9BZE2 1-481, looked up)
chain: B1 chain with Y71C
[1]
  stoichiometry N: 2

From publication PMC10092196 (Human Mutation, 2022)
